Measured values: patent US5418135

Biological target: PDGF receptor (cell membrane-bound receptor for native PDGF)

Row | Substance | HALF-MAX INHIBITION (3H-thymidine incorporation induced by PDGF dimer)
1 | A6, Endo Lys-C fragment aa 12-41 of alkylated PDGF A monomer (peptide) | > 200 nM
2 | A4, Endo Lys-C fragment aa 80-110 of alkylated PDGF A monomer (peptide) | 100 nM
3 | PDGF A chain monomer, intact, Cys residues pyridylethylated (ligand) | 100 nM
